Patent US20240124586A1 (WUXI BIOLOGICS IRELAND, published 2024)

What was measured:
[1] = target: T1, human PD-1 on engineered CHO-S cells (W305-CHO-S.hPro1.C6) (human, UniProt Q15116 25-288); experiment: FACS binding to human PD-1 engineered cells
T1 construct: whole, on cells; also called human PD-1 engineered cells; PD-1+ cells
Procedure: (§1) Engineered human PD-1 expressing cells W305-CHO-S.hPro1.C6 were seeded at 1×10⁵ cells/well in U-bottom 96-well plates (COSTAR 3799). Antibodies with 3.16-fold titration in 1% BSA DPBS from 200 nM to 0.002 nM were added to the cells. The plates were incubated at 4° C. for 1 hour. After wash, […] 1:125 diluted PE-labeled goat anti-human antibody (Jackson 109-115-098) was added to each well and the plates were incubated at 4° C. for 1 hour. The binding of the antibodies onto the cells was tested by flow cytometry and the mean fluorescence intensity (MFI) was analyzed by FlowJo.

[2] = target: T2, human CTLA-4 on engineered 293F cells (W316-293F.hPro1.FL) (human, UniProt P16410 36-223); experiment: FACS binding to human CTLA-4 engineered cells
T2 construct: whole, on cells; also called human CTLA-4 engineered cells; CTLA-4+ cells
T2 sequence (P16410 36-223, change not shown): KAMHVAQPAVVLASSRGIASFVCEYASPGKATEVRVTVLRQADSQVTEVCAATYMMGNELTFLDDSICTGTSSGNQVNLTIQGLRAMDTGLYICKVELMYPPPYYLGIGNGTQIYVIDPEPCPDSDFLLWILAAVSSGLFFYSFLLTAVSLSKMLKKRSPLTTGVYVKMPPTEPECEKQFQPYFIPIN
Procedure: 3.16-fold titrated Abs with 1% BSA DPBS from 200 nM to 0.002 nM were added to the cells. Plates were incubated at 4° C. for 1 hour. After wash, […] 1:150 diluted PE-labeled goat anti-human antibody (Jackson 109-115-098) was added to each well and the plates were incubated at 4° C. for 1 hour. The binding of the antibodies onto the cells was tested by flow cytometry and the mean fluorescence intensity (MFI) was analyzed by FlowJo.

[3] = target: T1, human PD-1 on engineered CHO-S cells …; experiment: FACS on human PD-1 engineered cells
Procedure: as §1

[4] = target: T1, human PD-1 on engineered CHO-S cells …; experiment: FACS competition: antibody titrated against human PD-L1 binding to PD-1; falling curve, half-maximal value labelled EC50 on the sheet
Procedure: In order to test whether the bispecific antibodies could block hPD-L1 binding to hPD-1 protein, a competitive FACS was conducted. […] Plates were incubated at 4° C. for 1 hour. After wash, the binding of W315-hPro1.ECD.mFc to cell expressive human PD-1 was detected by FITC-labeled goat anti-mouse antibody (abcam 98716 1:125). The competition binding of antibodies to the cells was tested by flow cytometry and the mean fluorescence intensity (MFI) was analyzed by FlowJo.

T1 sequence (Q15116 25-288, change not shown): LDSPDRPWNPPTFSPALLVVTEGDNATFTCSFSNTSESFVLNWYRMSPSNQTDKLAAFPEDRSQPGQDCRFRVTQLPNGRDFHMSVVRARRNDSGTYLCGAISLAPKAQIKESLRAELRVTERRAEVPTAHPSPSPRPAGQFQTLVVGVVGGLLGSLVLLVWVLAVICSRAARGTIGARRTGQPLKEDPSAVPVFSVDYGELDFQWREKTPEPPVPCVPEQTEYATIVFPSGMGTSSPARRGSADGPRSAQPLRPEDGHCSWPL

B1: T4U6.G26R.IgG4, bispecific anti-CTLA-4 x PD-1 (bispecific antibody)
chain: QVQLQESGPGLVKPSETLSLTCSVTYHTITSGYDWTWIRKPPGKGMEWIGYISYSGNTNYNPSLKSRVTISRDTSKNQFFLKLSSVTAADTAVYYCASMMVPHYYVMDAWGQGTLVTVSSASTKGPSVFPLAPCSRSTSESTAALGCLVKDYFPEPVTVSWNSGALTSGVHTFPAVLQSSGLYSLSSVVTVPSSSLGTKTYTCNVDHKPSNTKVDKRVGGGGSGGGGSSYELTQPLSVSVALGQTARITCGGDNIGNKDVHWYQQKPGQAPVLVIYRDSNRPSGIPEGFSGSNSGNTATLTISRAQAGDEADYYCQVWDSIWVFGGGTKLTVLPDIQNPDPAVYQLRDSKSSDKSVCLFTDFDSQTQVSQSKDSDVYITDKCVLDMRSMDFKSNSAVAWSQKSDFACANAFQNSIIPEDTFFPSPESS
heavy: EVQLLESGGGLVQPGGSLRLSCAASGFTFSSHAMSWVRQAPGKGLEWVSTITGGGGSIYYADSVKGRFTISRDNSKNTLYLQMNSLRAEDTAVYYCAKNRAGEGYFDYWGQGTLVTVLEDLKNVFPPEVAVFEPSEAEISHTQKATLVCLATGFYPDHVELSWWVNGKEVHSGVCTDPQPLKEQPALQDSRYALSSRLRVSATFWQNPRNHFRCQVQFYGLSENDEWTQDRAKPVTQIVSAEAWGRYGPPCPPCPAPEFLGGPSVFLFPPKPKDTLMISRTPEVTCVVVDVSQEDPEVQFNWYVDGVEVHNAKTKPREEQFNSTYRVVSVLTVLHQDWLNGKEYKCKVSNKGLPSSIEKTISKAKGQPREPQVYTLPPSQEEMTKNQVSLTCLVKGFYPSDIAVEWESNGQPENNYKTTPPVLDSDGSFFLYSRLTVDKSRWQEGNVFSCSVMHEALHNHYTQKSLSLSLG
light: DIVMTQTPLSLSVTPGQPASISCRSSQSLLNSDGNTYLYWYLQKPGQSPQLLIYLVSKLGSGVPNRFSGSGSGTDFTLKISRVEAEDVGVYYCVQGTHDPWTFGGGTKVEIKRTVAAPSVFIFPPSDEQLKSGTASVVCLLNNFYPREAKVQWKVDNALQSGNSQESVTEQDSKDSTYSLSSTLTLSKADYEKHKVYACEVTHQGLSSPVTKSFNRGEC
notes: Light-heavy crossed chimeric Fab; first chain is T4-HC fused to U6-LC; T4 = WBP3162-1.146.19-z12; also called T4U6 antibody pair in G26R format
For B1, the EC50 [1] was 4.78 nM and the EC50 [2] was 5.91 nM.

B2: U6T1.G19R.IgG4, bispecific anti-PD-1 x CTLA-4 (bispecific antibody)
heavy: EVQLLESGGGLVQPGGSLRLSCAASGFTFSSHAMSWVRQAPGKGLEWVSTITGGGGSIYYADSVKGRFTISRDNSKNTLYLQMNSLRAEDTAVYYCAKNRAGEGYFDYWGQGTLVTVLEDLKNVFPPEVAVFEPSEAEISHTQKATLVCLATGFYPDHVELSWWVNGKEVHSGVCTDPQPLKEQPALQDSRYALSSRLRVSATFWQNPRNHFRCQVQFYGLSENDEWTQDRAKPVTQIVSAEAWGRYGPPCPPCPAPEFLGGPSVFLFPPKPKDTLMISRTPEVTCVVVDVSQEDPEVQFNWYVDGVEVHNAKTKPREEQFNSTYRVVSVLTVLHQDWLNGKEYKCKVSNKGLPSSIEKTISKAKGQPREPQVYTLPPSQEEMTKNQVSLTCLVKGFYPSDIAVEWESNGQPENNYKTTPPVLDSDGSFFLYSRLTVDKSRWQEGNVFSCSVMHEALHNHYTQKSLSLSLGGGGGSGGGGSGGGGSGGGGSQVQLVESGGGVVQPGRSLRLSCAASGFTFSSYTMHWVRQAPGKGLEWVTFISYDGNNKYYADSVKGRFTISRDNSKNTLYLQMNSLRAEDTAIYYCARTGWLGPFDYWGQGTLVTVSSASTKGPSVFPLAPCSRSTSESTAALGCLVKDYFPEPVTVSWNSGALTSGVHTFPAVLQSSGLYSLSSVVTVPSSSLGTKTYTCNVDHKPSNTKVDKRV
light 1: SYELTQPLSVSVALGQTARITCGGDNIGNKDVHWYQQKPGQAPVLVIYRDSNRPSGIPEGFSGSNSGNTATLTISRAQAGDEADYYCQVWDSIWVFGGGTKLTVLPDIQNPDPAVYQLRDSKSSDKSVCLFTDFDSQTQVSQSKDSDVYITDKCVLDMRSMDFKSNSAVAWSQKSDFACANAFQNSIIPEDTFFPSPESS
light 2: not shown
notes: Symmetric tetravalent format G19R; also called U6T1 in G19R format
B2 was tested, and the EC50 [3] was 1.74 nM and the IC50 [4] was 1.87 nM.

B3: U6T1.G25.IgG4, bispecific anti-PD-1 x CTLA-4 (bispecific antibody)
heavy: not shown
light 1: SYELTQPLSVSVALGQTARITCGGDNIGNKDVHWYQQKPGQAPVLVIYRDSNRPSGIPEGFSGSNSGNTATLTISRAQAGDEADYYCQVWDSIWVFGGGTKLTVLPDIQNPDPAVYQLRDSKSSDKSVCLFTDFDSQTQVSQSKDSDVYITDKCVLDMRSMDFKSNSAVAWSQKSDFACANAFQNSIIPEDTFFPSPESS
light 2: not shown
notes: Symmetric tetravalent format G25; also called U6T1 in G25 format
Work on B3 yielded an EC50 [3] of 1.65 nM and an IC50 [4] of 1.96 nM.
